Where a name gives a salt, the structure may show the parent alone.
Experiments:
[1] = target: T1, TCPTP (Homo sapiens, UniProt P17706); experiment: Phosphatase assay with recombinant, purified TCPTP (diFMUP substrate); format: biochemical; parameters: For phosphatase assays with purified protein, full length TCPTP was incubated in phosphatase reaction buffer; GST (N); made in house; host or cells: E. coli BL21 pLysS; conditions: FIG. 2B; for activation of TCPTP by small molecule compounds: preincubated with 0.2 μg/ml TCPTP 10 minutes RT, different concentrations
T1 sequence (P17706 1-387 isoform P17706-2): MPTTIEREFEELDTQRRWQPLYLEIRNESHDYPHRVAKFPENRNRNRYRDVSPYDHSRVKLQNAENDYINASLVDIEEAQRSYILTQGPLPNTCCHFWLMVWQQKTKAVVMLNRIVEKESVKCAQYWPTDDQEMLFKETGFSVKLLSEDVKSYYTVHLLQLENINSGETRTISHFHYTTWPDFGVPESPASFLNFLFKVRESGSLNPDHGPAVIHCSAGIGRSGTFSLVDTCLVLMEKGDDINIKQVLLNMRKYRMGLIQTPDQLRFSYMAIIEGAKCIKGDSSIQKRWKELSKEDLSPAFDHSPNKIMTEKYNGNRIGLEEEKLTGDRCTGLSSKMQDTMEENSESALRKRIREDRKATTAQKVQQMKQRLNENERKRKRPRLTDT
Method: Serum starved Hela cells were either left untreated on plastic, stimulated with 10% FBS for 30 min or detached and replated on collagen type I or poly-L-lysine (10 μg/ml, Sigma) coated tissue-culture plates for 1 h. When indicated cells were surface biotinylated as described^12. Cells were either lysed in Laemmli sample buffer and fractionated on SDS-PAGE for western blotting or lysed in lysis buffer and equal amounts of protein from each sample were precleared with protein G-Sepharose and subjected to immunoprecipitation. Antibodies (anti-TCPTP, Oncogene; anti-a1, anti-a5, anti-a6, all from Chemicon; anti-SHP-2, Santa Cruz) were incubated with protein G-Sepharose and immunoprecipitation was performed at 4° C. for 2 h. The immunoprecipitates were washed three times with cell lysis buffer. For co-precipitation assays, proteins were resolved on SDS-PAGE followed with western blotting or detection of biotin with Vectastain reagent (Vector). For phosphatase assays, immunoprecipitates were resuspended in phosphatase reaction buffer (25 mM Hepes pH 7.4, 50 mM NaCl, 1 mM DTT) and ⅓ of the reaction was subjected to western blotting and the remaining beads were assayed for phosphatase activity in triplicate using diFMUP (Molecular Probes) as a substrate and in the presence of serine/threonine phosphatase inhibitor cocktail (Sigma) according to manufacturers instructions. When indicate synthetic peptides were preincubated with the immunoprecipitates for 15 min prior to phosphatase assay reaction (α2 peptide […] (SEQ ID NO:6), a kind gift from Dr Heino). For phosphatase assays with purified protein, full length TCPTP was incubated in phosphatase reaction buffer in the presence or absence of TCPTP deletion mutant proteins and synthetic integrin cytoplasmic tail peptides as indicated. […] The phosphatase reaction was allowed to proceed for 10 minutes in RT and stopped with urea followed with measurement of umbelliferone fluorescence according to manufacturers instructions (Molecular Probes). Western blotting was performed with commercial antibodies raised against EGFR, EGFR(PY)845, 992 or 1068 (Cell Signalling Technologies), TCPTP (Oncogene) or tubulin (Santa Cruz Biotechnology). Specific binding of antibodies was detected with peroxidase-conjugated secondary antibodies and visualized by enhanced chemiluminescence detection.

[2] = target: T1, TCPTP; experiment: Pull-down competition: purified TCPTP with GST-α1cyt fusion protein; format: binding; parameters: purified full-length TCPTP was incubated in the lysis buffer with GST-fusion proteins; GST (N); made in house; host or cells: E. coli BL21 pLysS; conditions: peptide 1 μg/ml, TCPTP 1 μg; FIG. 1F
Method: α1cyt and a2cyt were subcloned into pGEX4T1 (Amersham Biosciences). Full length TCPTP (45 kD) and its deletion mutants were PCR-amplified from pCG-TC45 plasmid^11 and cloned into pGEX-6P-1. GST-fusion proteins were expressed in E. coli (BL21 pLysS) and purified using manufacturer's instructions (Amersham Biosciences). Fusion proteins were either used immobilized to Glutathione-sepharose, eluted with 25 mM glutathione or GST was cleaved using precision protease according to manufacturers instructions (Amersham Biosciences). For pull-down assays, Hela cells were lysed to lysis buffer (1% octylglycoside, 50 mM Tris-HCl pH 7.5, 150 mM NaCl, 1 mM MgCl2, complete protease inhibitor (Roche)), clarified with centrifugation 10 min 13000 rpm+4 C, precleared with glutathione-sepharose and incubated with immobilized GST-fusion proteins and washed 3 times with 1 ml on the same buffer. Bound proteins were resolved on SDS-PAGE and detected with western blot. Alternatively, purified full-length TCPTP was incubated in the lysis buffer with GST-fusion proteins as indicated in the presence or absence of synthetic integrin α1 cytoplasmic tail peptide (RPLKKKMEKRPLKKKMEK, (SEQ ID NO:5) Genemed Synthesis).

[3] = target: T2, SHP-2 (Homo sapiens, UniProt Q06124); experiment: Phosphatase assay of immunoprecipitated SHP-2 from HeLa lysates (diFMUP substrate); format: biochemical; conditions: FIG. 2A
T2 construct: endogenous in cells; host or cells: HeLa
T2 sequence (Q06124 1-593): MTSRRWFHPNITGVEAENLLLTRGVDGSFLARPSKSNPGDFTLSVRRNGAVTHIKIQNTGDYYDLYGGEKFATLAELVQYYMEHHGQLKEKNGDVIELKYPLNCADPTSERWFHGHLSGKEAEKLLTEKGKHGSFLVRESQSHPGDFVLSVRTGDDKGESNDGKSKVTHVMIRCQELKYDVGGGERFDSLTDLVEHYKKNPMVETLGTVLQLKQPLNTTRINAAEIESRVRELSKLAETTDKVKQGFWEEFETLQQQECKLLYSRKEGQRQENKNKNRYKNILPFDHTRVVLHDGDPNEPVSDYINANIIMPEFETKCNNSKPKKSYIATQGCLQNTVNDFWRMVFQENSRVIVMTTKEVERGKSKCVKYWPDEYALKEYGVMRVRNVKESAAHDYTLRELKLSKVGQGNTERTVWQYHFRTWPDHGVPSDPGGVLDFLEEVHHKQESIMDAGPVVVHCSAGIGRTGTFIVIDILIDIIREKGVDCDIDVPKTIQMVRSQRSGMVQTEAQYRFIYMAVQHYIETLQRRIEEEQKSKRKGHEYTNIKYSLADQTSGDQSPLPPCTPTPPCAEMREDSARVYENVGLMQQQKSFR
Method: (§1) Serum starved Hela cells were either left untreated on plastic, stimulated with 10% FBS for 30 min or detached and replated on collagen type I or poly-L-lysine (10 μg/ml, Sigma) coated tissue-culture plates for 1 h. When indicated cells were surface biotinylated as described^12. Cells were either lysed in Laemmli sample buffer and fractionated on SDS-PAGE for western blotting or lysed in lysis buffer and equal amounts of protein from each sample were precleared with protein G-Sepharose and subjected to immunoprecipitation. Antibodies (anti-TCPTP, Oncogene; anti-a1, anti-a5, anti-a6, all from Chemicon; anti-SHP-2, Santa Cruz) were incubated with protein G-Sepharose and immunoprecipitation was performed at 4° C. for 2 h. The immunoprecipitates were washed three times with cell lysis buffer. For co-precipitation assays, proteins were resolved on SDS-PAGE followed with western blotting or detection of biotin with Vectastain reagent (Vector). […] The phosphatase reaction was allowed to proceed for 10 minutes in RT and stopped with urea followed with measurement of umbelliferone fluorescence according to manufacturers instructions (Molecular Probes). […] Specific binding of antibodies was detected with peroxidase-conjugated secondary antibodies and visualized by enhanced chemiluminescence detection.

[4] = system: HeLa cells; experiment: Microinjection of fluorescein diphosphate (FDP) and peptide into live HeLa cells, phosphatase activity; format: cell-based, human; conditions: 1 mg/ml peptide co-injected with 1 mM FDP, 30 min; compared with α2 or PBS; FIG. 4A
Method: Cells were plated on acid-washed glass coverslips coated with collagen type I, fibronectin or poly-L-lysine (10 μg/ml) and allowed to adhere for 1 h. Cells were washed in PBS and fixed with 4% paraformaldehyde for 10 min. For antibody staining, cells were permeabilized in PBS/0.1% Triton X-100 and washed with PBS/1% (w/v) BSA for blocking. Cells were stained with antibodies as indicated for 1 h at room temperature. Cells were then washed three times with PBS before detection with Alexa-488 or Alexa-555-conjugated anti-rabbit or anti-mouse antibodies (Molecular Probes). After washing in PBS and water, cells were mounted in Mowiol (100 mM Tris-HCl at pH 8.5, 10% (w/v) Mowiol (Calbiochem, San Diego, Calif.) and 25% (v/v) glycerol containing antifade (2.5% (w/v) 1,4-diazadicyclo-2.2.2-octane (Sigma)). Slides were examined using Zeiss inverted fluorescence microscope or a confocal laser scanning microscope (Axioplan 2 with LSM 510; Carl Zeiss Inc., Jena, Germany) equipped with 63×/1.4 Plan-Apochromat oil immersion objectives. Confocal images represent a single z-section of approximately 1.0 μm. Cytosolic microinjections with 1 mM FDP (Molecular probes) and 1 mg/ml of peptide in PBS were performed on Hela cells cultured on glass-bottom 3 cm plates. Fluorescence images from live cells were taken with identical settings and intensities were quantified using Zeiss Axioplan4 software.

[5] = target: T3, TCPTP (Homo sapiens, UniProt P17706); experiment: Phosphatase assay of immunoprecipitated TCPTP from HeLa lysates (diFMUP substrate); format: biochemical; conditions: peptide preincubated with immunoprecipitate 15 min; FIG. 2A
T3 construct: endogenous in cells; host or cells: HeLa
T3 sequence (P17706 1-415): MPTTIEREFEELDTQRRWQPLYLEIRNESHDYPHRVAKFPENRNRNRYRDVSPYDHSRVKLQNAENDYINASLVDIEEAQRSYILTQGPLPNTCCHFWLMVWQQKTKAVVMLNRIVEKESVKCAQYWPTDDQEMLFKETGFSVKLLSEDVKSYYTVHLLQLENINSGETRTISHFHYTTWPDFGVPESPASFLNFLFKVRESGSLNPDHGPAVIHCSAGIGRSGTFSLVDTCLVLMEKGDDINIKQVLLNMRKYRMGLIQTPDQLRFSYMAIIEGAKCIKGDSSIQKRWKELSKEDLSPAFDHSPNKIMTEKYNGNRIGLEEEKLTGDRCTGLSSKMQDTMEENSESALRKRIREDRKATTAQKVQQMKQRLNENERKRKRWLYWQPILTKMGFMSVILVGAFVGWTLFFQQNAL
Method: as §1

Row | Compound | activation of TCPTP by small molecule compounds [1] | activation of SHP-2 phosphatase [3] | increase of catalytic activity of immunoprecipitated TCPTP [5] | also measured
1 | NCCC1CCCC(CCN)N1 (centres unmarked) [MDL-26,630 trihydrochloride] | able to activate TCPTP | – | – | –
2 | synthetic α1 tail peptide: synthetic integrin α1 cytoplasmic tail peptide RPLKKKMEKRPLKKKMEK (SEQ ID NO:5), Genemed Synthesis (fusion protein) | – | not activated | 2.95±0.48 fold | activation of recombinant, purified TCPTP by peptide ([1]; TCPTP 0.15 μg/ml, different peptide concentrations): highly activated; competition with α1cyt for the association with TCPTP [2]: able to compete; phosphatase activity in live HeLa cells (FDP fluorescence) [4]: induced phosphatase activity
3 | NCCCCNCCCN [Spermidine] | able to activate TCPTP | – | – | –
4 | O=C1c2c(O)ccc(O)c2C(=O)c2c(NCCNCCO)ccc(NCCNCCO)c21 [Mitoxantrone] | able to activate TCPTP | – | – | –
5 | N.N.N.N.N.N.N.N.N.N.N.N.N.N.[Cl-].[Cl-].[Cl-].[Cl-].[Cl-].[Cl-].[O-2].[O-2].[Ru+3].[Ru+3].[Ru+4] [Ruthenium Red] | able to activate TCPTP | – | – | –
6 | α2 tail peptide: synthetic α2 integrin cytoplasmic tail peptide KLGFFKRKYEKMTKNPDEIDETTELSS (SEQ ID NO:6) (fusion protein) | – | not activated | no effect | –

From US20070116673A1, “Method for activating T cell protein phosphatase and therapeutical methods based thereon” (Valtion Teknillinen Tutkimuskeskus, priority 2005, published 2007)
